In PMC4005679, “In vitro assembly and activity of an archaeal CRISPR-Cas type I-A Cascade interference complex” (Nucleic Acids Research, 2014):

Key:
[1] = target: T1, Csa5;Cas7;Cas5a;Cas3';Cas3'';Cas8a2 (Thermoproteus tenax Kra1;Thermoproteus …, UniProt G4RJZ0;G4RJZ1;G4RJZ2;G4RJZ3;G4RJZ4;G4RJZ5 1-130;1-329;1-226;1-566;1-226;1-361, |||||); experiment: EMSA; yeast RNA competitor; Ca2+ during reconstitution; 0.125-2 uM Cascade; 100 mM HEPES/KOH pH 7, 100 mM NaCl, 10 mM beta-mercaptoethanol, 50 ng yeast RNA, 30 min at 70 C (Cascade; 6% native TBE-PAGE); Cas7 alone without yeast RNA at 80 C, agarose gel; 2-4 nM labeled crRNA; conditions: protein: recombinant;recombinant;recombinant;recombinant;recombinant;recombinant; tags: untagged;His-SUMO tag cleaved off;;;;; label: 5'-32P; single strand
[2] = target: T1, Csa5;Cas7;Cas5a;Cas3';Cas3'';Cas8a2; experiment: EMSA; yeast RNA competitor; Ca2+ during reconstitution; 0.125-5 uM Cascade; affinity similar to crRNA 5.13; 100 mM HEPES/KOH pH 7, 100 mM NaCl, 10 mM beta-mercaptoethanol, 50 ng yeast RNA, 30 min at 70 C (Cascade; 6% native TBE-PAGE); Cas7 alone without yeast RNA at 80 C, agarose gel; 2-4 nM labeled crRNA; conditions: protein: recombinant;recombinant;recombinant;recombinant;recombinant;recombinant; tags: untagged;His-SUMO tag cleaved off;;;;; label: 5'-32P (EMSA); unlabeled in SEC; single strand

Row | Binder | binding result [1] | binding result [2]
1 | crRNA 5.13 (ssRNA, 5'-OH from hammerhead cleavage before labeling) RNA: AUUGAAAGAUCGCUUGUCCAACCGGGCUCCUCUAUAUGUCGUCAUUAGCUUAGA | binds | 
2 | AUUGAAAGCGUUGAUGCGGCCGCGACUGGCUGACUCAGCUAUUACGUUGA (ssRNA, 5'-OH from hammerhead cleavage before labeling) [crRNA 5.2] |  | binds
